US20230313187A1, “MODIFICATIONS OF MAMMALIAN CELLS USING ARTIFICIAL MICRO-RNA TO ALTER THEIR PROPERTIES AND THE COMPOSITIONS OF THEIR PRODUCTS” (DNA TWOPOINTO INC., priority 2020, published 2023)
Several values for one entry are separate records, joined by “and”; a condition that tells them apart may be missing. Equal values may be shown once.

B1: SEQ ID NO: 600: five-hairpin amiRNA, two guides to interferon receptor subunit 1 mRNA and three to subunit 2 mRNA (nucleic acid)
chain: ATCTGATCTTCTGAAGAAAATATATTTCTTTTTATTCATAGCTCTTAACTAGTGGTGATAGCAATGTCAGCAGTGCCTAAGACTATCAGCAAGAACCAGGGTGAAGCCACAGATGCCTGGTTCTTACTGATAGTCTCAAGTAAGGTTGACCATACTCTACTCTAGTTATATTCTTTAGGCACGAATGTGTGTTTAAAAAAAATAAAAACTAGTGGTGATAGCAATGTCAGCAGTGCCTTAAAATAACACACAAGAGCCATGTGAAGCCACAGATGATGGCTCTTGCGTGTTATTTTCAAGTAAGGTTGACCATACTCTACTCTAGAGTTGTGTTTTAATGTATATTAATGTTACTAATGTGTTTACTAGTGGTGATAGCAATGTCAGCAGTGCCTTTGAAGATAACTTTGTCCCCGGGTGAAGCCACAGATGCCGGGGACAACGTTATCTTCACAAGTAAGGTTGACCATACTCTACTCTAGGTTATTTTTAGTATGATTCTGTAAAAATGAATTAATACTAACTAGTGGTGATAGCAATGTCAGCAGTGCCTTTAAACAGTAAGTAGTCTCTGGGTGAAGCCACAGATGCCAGAGACTAATTACTGTTTACAAGTAAGGTTGACCATACTCTACTCTAGATTTTTCAGATGTATCATCTCTTAAAATACTGTAATTGCAACTAGTGGTGATAGCAATGTCAGCAGTGCCTTAAACAACAATGGATCCCCAAAGTGAAGCCACAGATGTTTGGGGATCAATTGTTGTTTCAAGTAAGGTTGACCATACTCTACTCTAGTCAGTTTTATTGATAGTCTTTTCAGTATTATTGATAATCTT
B2: SEQ ID NO: 601: four-hairpin amiRNA, two guides to interferon receptor subunit 1 mRNA and two to subunit 2 mRNA (nucleic acid)
chain: ATCTGATCTTCTGAAGAAAATATATTTCTTTTTATTCATAGCTCTTAACTAGTGGTGATAGCAATGTCAGCAGTGCCTTAGTGTAGACAACAGTACCTCTGTGAAGCCACAGATGAGAGGTACTATTGTCTACACTCAAGTAAGGTTGACCATACTCTACTCTAGTTATATTCTTTAGGCACGAATGTGTGTTTAAAAAAAATAAAAACTAGTGGTGATAGCAATGTCAGCAGTGCCTTTCCACGTCTGTCTTGTCCTACGTGAAGCCACAGATGGTAGGACAAGCCAGACGTGGACAAGTAAGGTTGACCATACTCTACTCTAGAGTTGTGTTTTAATGTATATTAATGTTACTAATGTGTTTACTAGTGGTGATAGCAATGTCAGCAGTGCCTTAAACAACAATGGATCCCCAAAGTGAAGCCACAGATGTTTGGGGATCAATTGTTGTTTCAAGTAAGGTTGACCATACTCTACTCTAGGTTATTTTTAGTATGATTCTGTAAAAATGAATTAATACTAACTAGTGGTGATAGCAATGTCAGCAGTGCCTTAACACAGTACCGCCTTAGTGCGTGAAGCCACAGATGGCACTAAGGCAGTACTGTGTTCAAGTAAGGTTGACCATACTCTACTCTAGTCAGTTTTATTGATAGTCTTTTCAGTATTATTGATAATCTT
B3: SEQ ID NO: 202: three-hairpin amiRNA, guides SEQ ID NOs 29, 30, 31 complementary to Homo sapiens FUT8 mRNA (nucleic acid)
chain: ATCTGATCTTCTGAAGAAAATATATTTCTTTTTATTCATAGCTCTTAACTAGTGGTGATAGCAATGTCAGCAGTGCCTTTGGTCGTTTATCTCTTCCATCGTGAAGCCACAGATGGATGGAAGAGCTAAACGACCACAAGTAAGGTTGACCATACTCTACTCTAGAGTTGTGTTTTAATGTATATTAATGTTACTAATGTGTTTACTAGTGGTGATAGCAATGTCAGCAGTGCCTTTCATCTACAGTTTGGCTGAAAGTGAAGCCACAGATGTTTCAGCCAACCTGTAGATGACAAGTAAGGTTGACCATACTCTACTCTAGGTTATTTTTAGTATGATTCTGTAAAAATGAATTAATACTAACTAGTGGTGATAGCAATGTCAGCAGTGCCTTTAAATTACACAATATGGCAGTGTGAAGCCACAGATGACTGCCATATCGTGTAATTTACAAGTAAGGTTGACCATACTCTACTCTAGTCAGTTTTATTGATAGTCTTTTCAGTATTATTGATAATCTT

What was measured:
[1] = system: Cricetulus griseus interferon receptor subunit 1 mRNA and subunit 2 mRNA; test: Expression of human interferon beta from CHO cells (ELISA), amiRNA to both interferon receptor subunits; type: cell-based; conditions: for Average Titer: average of duplicate cultures; for interferon beta expression compared with the control transposon: control transposon expressed 48 μg/ml; for Titer: 10-day fed batch
Source text: One multi-hairpin amiRNA, with nucleotide sequence SEQ ID NO: 600, comprised five hairpins; the first hairpin comprised a guide strand with nucleotide sequence SEQ ID NO: 103, immediately followed by a loop with nucleotide sequence SEQ ID NO: 241 and passenger strand with nucleotide sequence SEQ ID NO: 188; the second hairpin comprised a guide strand with nucleotide sequence SEQ ID NO: 95, immediately followed by a loop with nucleotide sequence SEQ ID NO: 241 and passenger strand with nucleotide sequence SEQ ID NO: 180; the third hairpin comprised a guide strand with nucleotide sequence SEQ ID NO: 104, immediately followed by a loop with nucleotide sequence SEQ ID NO: 241 and a passenger strand with nucleotide sequence SEQ ID NO: 189; the fourth hairpin comprised a guide strand with nucleotide sequence SEQ ID NO: 97, immediately followed by a loop with nucleotide sequence SEQ ID NO: 241 and a passenger strand with nucleotide sequence SEQ ID NO: 182; the fifth hairpin comprised a guide strand with nucleotide sequence SEQ ID NO: 102, immediately followed by a loop with nucleotide sequence SEQ ID NO: 241 and a passenger strand with nucleotide sequence SEQ ID NO: 187. Two of these five guide strand sequences were a 22 base sequence that was an exact reverse complement of a different region within the Cricetulus griseus interferon receptor subunit 1 mRNA (with nucleotide sequence SEQ ID NO: 19); three of these five guide strand sequences were a 22 base sequence that was an exact reverse complement of a different region within the Cricetulus griseus interferon receptor subunit 2 mRNA (with nucleotide sequence SEQ ID NO: 20). Each passenger strand sequence was complementary to its corresponding guide strand sequence, except that the bases in the passenger strand sequences corresponding to the 5′ base of the guide strand and the twelfth base of the guide strand were changed to be non-complementary.
One multi-hairpin amiRNA, with nucleotide sequence SEQ ID NO: 601, comprised four hairpins; the first hairpin comprised a guide strand with nucleotide sequence SEQ ID NO: 101, immediately followed by a loop with nucleotide sequence SEQ ID NO: 241 and passenger strand with nucleotide sequence SEQ ID NO: 186; the second hairpin comprised a guide strand with nucleotide sequence SEQ ID NO: 99, immediately followed by a loop with nucleotide sequence SEQ ID NO: 241 and passenger strand with nucleotide sequence SEQ ID NO: 184; the third hairpin comprised a guide strand with nucleotide sequence SEQ ID NO: 102, immediately followed by a loop with nucleotide sequence SEQ ID NO: 241 and a passenger strand with nucleotide sequence SEQ ID NO: 187; the fourth hairpin comprised a guide strand with nucleotide sequence SEQ ID NO: 106, immediately followed by a loop with nucleotide sequence SEQ ID NO: 241 and a passenger strand with nucleotide sequence SEQ ID NO: 191. Two of these four guide strand sequences were a 22 base sequence that was an exact reverse complement of a different region within the Cricetulus griseus interferon receptor subunit 1 mRNA (with nucleotide sequence SEQ ID NO: 19); two of these four guide strand sequences were a 22 base sequence that was an exact reverse complement of a different region within the Cricetulus griseus interferon receptor subunit 2 mRNA (with nucleotide sequence SEQ ID NO: 20). Each passenger strand sequence was complementary to its corresponding guide strand sequence, except that the bases in the passenger strand sequences corresponding to the 5′ base of the guide strand and the twelfth base of the guide strand were changed to be non-complementary. […]

[2] = system: Homo sapiens alpha-(1,6)-fucosyl transferase (FUT8) mRNA; test: Inhibition of antibody fucosylation in HEK cell pools, amiRNA directed toward FUT8; type: cell-based
Source text: Two different multi-hairpin amiRNA sequences were designed to target genes involved in the fucosylation pathway in human cells: alpha-(1,6)-fucosyl transferase (FUT8), GDP-Mannose 4,6-dehydratase (GMD), and GDP-fucose transporter 1 (GFT). One Multi-hairpin amiRNA, with nucleotide sequence SEQ ID NO: 202 comprised three hairpins; the first hairpin comprised guide strand sequence SEQ ID NO: 29, immediately followed by loop sequence SEQ ID NO: 241 and passenger strand sequence SEQ ID NO: 114, the second hairpin comprised guide strand sequence SEQ ID NO: 30, immediately followed by loop sequence SEQ ID NO: 241 and passenger strand sequence SEQ ID NO: 115, the third hairpin comprised guide strand sequence SEQ ID NO: 31, immediately followed by loop sequence SEQ ID NO: 241 and passenger strand sequence SEQ ID NO: 116. Each of these three guide strand sequences was a 22 base sequence that was an exact reverse complement of a different region within the Homo sapiens alpha-(1,6)-fucosyl transferase (FUT8) mRNA. Each passenger strand sequence was complementary to its corresponding guide strand sequence, except that the bases in the passenger strand sequences corresponding to the 5′ base of the guide strand and the twelfth base of the guide strand were changed to be non-complementary. The first and twelfth bases of guide strand with SEQ ID NO: 29 are T and T respectively, the corresponding bases in the corresponding passenger strand sequence SEQ ID NO: 114 are C and C respectively. The first and twelfth bases of guide strand with SEQ ID NO: 30 are T and T respectively, the corresponding bases in the corresponding passenger strand sequence SEQ ID NO: 115 are C and C respectively. The first and twelfth bases of guide strand with SEQ ID NO: 31 are T and A respectively, the corresponding bases in the corresponding passenger strand sequence SEQ ID NO: 116 are C and C respectively. Each hairpin in multi-hairpin amiRNA nucleotide sequence SEQ ID NO: 202 further comprised additional stem-stabilizing sequences, with stem sequence SEQ ID NO: 255 immediately preceding the guide strand sequence, and stem sequence SEQ ID NO: 256 immediately following the passenger strand sequence. Multi-hairpin amiRNA nucleotide sequence SEQ ID NO: 202 further comprised an unstructured sequence with SEQ ID NO: 251 to the 5′ of the first hairpin, and an unstructured sequence with SEQ ID NO: 253 to the 3′ of the third hairpin. […]
The multi-hairpin amiRNA sequences were placed to the 3′ of an open reading frame encoding a red fluorescent protein (with nucleotide sequence SEQ ID NO: 279) and followed by a rabbit globin polyadenylation sequence. […]

[3] = interferon beta in supernatant, first of duplicate cultures
[4] = interferon beta, second of duplicate cultures

Molecule | Average Titer [1] | interferon beta expression compared with the control transposon [1] | Titer [1, 3] | Titer [1, 4] | G0 + G1 % (area) ([2]; afucosylated antibody, HEK pool, 7-day transient culture, listed as 202) | Titer ([2]; antibody in culture supernatant, HEK pool, 7-day culture, listed as 202) | reduction of antibody fucosylation ([2]; both replicates of HEK cell pools (Table 3 rows 3 and 4)) | G0F + G1F (% area) ([2]; fucosylated antibody, HEK pool, 7-day transient culture, listed as 202)
B1 | 79.8 µg/mL | as much as twice the expression levels of interferon beta as the control transposon | 80.3 µg/mL | 79.2 µg/mL | – | – | – | –
B2 | 88.0 µg/mL | as much as twice the expression levels of interferon beta as the control transposon | 97.3 µg/mL | 78.6 µg/mL | – | – | – | –
B3 | – | – | – | – | 90 % (area) and 89 % (area) | 353 mg/L and 316 mg/L | approximately 90% | 10 % area and 11 % area
